In the assay the target is Tet DNA binding domain only (UniProt P04483 1-207). As to the kind of experiment: mammalian two-hybrid luciferase reporter, Phoenix cells. On the technique in general: Reporter assays use an easily measured gene product as a stand-in for the process of interest.
Sequence of Tet DNA binding domain only (P04483 whole entry, the tested form may be a part): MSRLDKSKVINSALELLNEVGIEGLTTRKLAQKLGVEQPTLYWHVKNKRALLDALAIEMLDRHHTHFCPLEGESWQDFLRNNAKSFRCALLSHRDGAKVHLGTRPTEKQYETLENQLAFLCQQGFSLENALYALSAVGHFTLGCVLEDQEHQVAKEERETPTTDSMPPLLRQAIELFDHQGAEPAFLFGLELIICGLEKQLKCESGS

B1: VP16 activation domain only (other)
chain: APPTDVSLGDELHLDGEDVAMAHADALDDFDLDMLGDGDSPGPGFTPHDSAPYGALDMADFEFEQMFTDALGIDEYGG
notes: also called pVACT
Take B1: the binding result is “no binding”.
